Measurements published in paper PMC7971519.

Target: PRRSV nonstructural protein 2 transframe product (nsp2TF) (porcine reproductive and respiratory syndrome virus 2 (PRRSV-2), isolate SD95-21)
Assay: co-IP; lysates of PRRSV-infected MARC-145 cells collected at 8, 10 and 12 hpi; IP with rabbit anti-nsp2TF pAb or anti-nsp2 pAb (C-terminal peptides); blots probed with anti-GP5 and anti-M mAbs; densitometry; mock-infected lysate as control

PRRSV GP5 glycoprotein (natural protein)
fold more GP5 co-precipitated than in the nsp2 IP, 8 hpi: 3.39 fold
fold more GP5 co-precipitated than in the nsp2 IP, 10 hpi: 3.26 fold
fold more GP5 co-precipitated than in the nsp2 IP, 12 hpi: 3.36 fold

PRRSV membrane (M) protein (natural protein)
fold more M protein co-precipitated than in the nsp2 IP, 8 hpi: 3.38 fold
fold more M protein co-precipitated than in the nsp2 IP, 10 hpi: 3.44 fold
fold more M protein co-precipitated than in the nsp2 IP, 12 hpi: 2.77 fold
